In article PMC4963854 (2016):

What was measured:
Fluo-Ia = Fluo-Ia (Streptococcus pyogenes); assay: fluorescence polarization
Fluo-IIa = Fluo-IIa (Streptococcus pyogenes); assay: fluorescence polarization

B1: Epsilon antitoxin (protein)
chain: AVTYEKTFEIEIINELSASVYNRVLNYVLNHELNKNDSQLLEVNLLNQLKLAKRVNLFDYSLEELQAVHEYWRSMNRYSKQVLNKEKVA
Kd (Fluo-Ia): 74.5 nM
Kd (Fluo-IIa): 170 nM
